Assay results published in patent US20070141652.

Legend:
[1] = biological target: purified wild-type Xenopus TPX2 (GST tag removed)
[2] = biological target: ΔNTPX2 (Xenopus TPX2 with amino acid 1 to 40 deleted, GST tag removed)

B1: Xenopus Aurora A kinase (AurA, also called Eg2), endogenous in egg extracts (protein)
chain: MERAVKENHKPSNVKIFHPMTEGAKRIPVNQPQSTQFRPPGTAVSAQRILGPSNVPQRVLAQAQKPILSSQKPTTQIPLRPATQGHQSSKPQGPNENRNPQQTSHSSTPNVEKKGSTDQGKTSAVPKEEGKKKQWCLEDFEIGRPLGKGKFGNVYLARERESKFILALKVLFKSQLEKAGVEHQLRREVEIQSHLRHPNILRLYGYFHDASRVYLILDYAPGGELFRELQKCTRFDDQRSAMYIKQLAEALLYCHSKKVIHRDIKPENLLLGSNGELKIADFGWSVHAPSSRRTTLCGTLDYLPPEMIEGRMHDETVDLWSLGVLCYEFLVGKPPFETDTHQETYRRISKVEFQYPPYVSEEARDLVSKLLKHNPNHRLPLKGVLEHPWIIKNSQLKKKDEPLPGAQ
In the case of B1, the “AurA activation, as determined by autophosphorylation of the activation loop at threonine 295 of AurA with antibody recognizing phospho-T295” value [1] is reported as “RanGTP-induced AurA activation in TPX2-depleted egg extracts could be rescued by adding purified wild-type TPX2” and the “AurA activation, as determined by autophosphorylation of the activation loop at threonine 295 of AurA with antibody recognizing phospho-T295” value [2] is reported as “AurA activation was either completely lacking or slightly enhanced compared to the TPX2-depleted egg extract”.
